Measurements from patent US7037666B2, “Methods for identifying modulators of the interaction between lap (latency associated peptide) and intergrin αvβ3 and medical use thereof” (SmithKline Beecham Corporation, priority 2000, dated 2006).
Ends that are not written are not given here.

Assays:
Format in all cases: cell-based
αvβ3 integrin [1] = target: T1, αvβ3 integrin (Homo sapiens, UniProt P05106+P06756); experiment: Adhesion of K562-αvβ3 cells to GST-LAPβ1 (amino acids 242–252) coated wells; conditions: matrix titration or 0.5 μg coated, 2 mM MgCl2
T1 construct: expressed in transfected cells; host or cells: K562
T1 sequence (P06756 31-889 limits assumed): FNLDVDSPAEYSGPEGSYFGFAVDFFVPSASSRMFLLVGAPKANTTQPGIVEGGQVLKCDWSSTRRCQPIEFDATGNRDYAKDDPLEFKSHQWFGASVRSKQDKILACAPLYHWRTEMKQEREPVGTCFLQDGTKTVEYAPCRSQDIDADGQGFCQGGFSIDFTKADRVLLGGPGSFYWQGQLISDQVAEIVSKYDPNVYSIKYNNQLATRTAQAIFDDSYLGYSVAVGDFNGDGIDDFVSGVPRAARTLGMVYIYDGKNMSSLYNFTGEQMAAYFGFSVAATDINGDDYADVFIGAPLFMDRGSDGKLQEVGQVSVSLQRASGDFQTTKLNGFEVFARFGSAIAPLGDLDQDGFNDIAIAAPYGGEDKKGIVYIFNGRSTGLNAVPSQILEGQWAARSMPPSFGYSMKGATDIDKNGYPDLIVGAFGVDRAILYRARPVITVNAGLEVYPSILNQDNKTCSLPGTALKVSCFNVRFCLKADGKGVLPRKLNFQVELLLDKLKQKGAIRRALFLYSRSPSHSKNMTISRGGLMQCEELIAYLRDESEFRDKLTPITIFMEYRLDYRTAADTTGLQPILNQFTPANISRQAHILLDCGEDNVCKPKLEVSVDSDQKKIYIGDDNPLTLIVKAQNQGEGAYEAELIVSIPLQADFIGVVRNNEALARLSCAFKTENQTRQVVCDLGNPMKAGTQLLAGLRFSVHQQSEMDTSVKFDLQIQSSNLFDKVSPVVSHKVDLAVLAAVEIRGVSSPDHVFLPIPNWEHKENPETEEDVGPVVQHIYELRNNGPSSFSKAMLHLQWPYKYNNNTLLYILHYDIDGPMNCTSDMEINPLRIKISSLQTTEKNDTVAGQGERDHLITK
T1 sequence (P06756 891-1048 partner limits assumed): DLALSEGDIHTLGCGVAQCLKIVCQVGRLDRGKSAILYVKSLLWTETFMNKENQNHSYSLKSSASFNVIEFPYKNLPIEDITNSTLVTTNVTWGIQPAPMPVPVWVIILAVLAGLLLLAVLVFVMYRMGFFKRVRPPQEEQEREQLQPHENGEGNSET
T1 sequence (P05106 27-788): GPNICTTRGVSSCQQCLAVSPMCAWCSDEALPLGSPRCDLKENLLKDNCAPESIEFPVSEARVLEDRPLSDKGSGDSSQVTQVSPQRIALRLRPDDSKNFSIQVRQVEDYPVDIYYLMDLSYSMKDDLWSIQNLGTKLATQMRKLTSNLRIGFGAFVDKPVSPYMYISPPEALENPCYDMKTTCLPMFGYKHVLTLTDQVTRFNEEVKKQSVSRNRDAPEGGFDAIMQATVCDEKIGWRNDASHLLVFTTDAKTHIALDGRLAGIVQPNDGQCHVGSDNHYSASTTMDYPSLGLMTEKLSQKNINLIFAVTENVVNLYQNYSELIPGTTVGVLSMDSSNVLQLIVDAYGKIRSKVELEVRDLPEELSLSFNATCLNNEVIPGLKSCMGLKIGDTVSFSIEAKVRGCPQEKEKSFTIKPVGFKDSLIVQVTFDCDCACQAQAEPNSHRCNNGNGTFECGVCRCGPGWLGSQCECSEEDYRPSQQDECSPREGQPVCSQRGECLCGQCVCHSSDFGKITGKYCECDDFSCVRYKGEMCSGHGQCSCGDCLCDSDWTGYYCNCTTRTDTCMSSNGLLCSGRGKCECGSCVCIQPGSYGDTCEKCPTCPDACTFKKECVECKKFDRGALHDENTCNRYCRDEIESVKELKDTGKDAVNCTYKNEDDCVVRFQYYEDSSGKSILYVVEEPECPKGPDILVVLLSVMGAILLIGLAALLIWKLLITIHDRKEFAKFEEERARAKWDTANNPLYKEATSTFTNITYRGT
Description: All proteins were coated onto Maxisorp 96-well plates (Nunclon) overnight at 4° C. Each protein was diluted in PBS at the concentrations indicated, and a total volume of 100 ul added per well. Plates were washed twice in PBS then blocked with 3% BSA/PBS for 1 hour at 37° C., and finally washed twice in PBS. Cells were pelleted and washed once in HBSS (Sigma) then spread in HBSS, 25 mM HEPES pH 7.5 at the desired cell concentration (K562-WT, K562-αvβ6, HL60 at 6×10^6 cells/ml, K562-αvβ5, K562-αvβ3 at 4×10^6 cells/ml, 100 ul per well), in the presence of either 2 mM MgCl2 or 0.5 mM MnCl2 as indicated in the figure legends. […] For antibody inhibition cells were pre-incubated with the antibody (10 μg/ml) on ice for 5 minutes. Cells were then allowed to attach for 35 minutes at 37° C., washed twice with PBS, once in ethanol, and fixed in ethanol for 20 minutes at room temperature. For quantitation cells were visualised by staining with 0.1% crystal violet (Sigma) for 10 minutes then lysed in 0.5% Triton X-100 (Sigma) and read optically at 570 nm in a Wallac Victor plate reader.

αvβ5 integrin = target: T2, αvβ5 integrin (Homo sapiens, UniProt P06756+P18084); experiment: Adhesion of K562-αvβ5 cells to LAP-β1 coated wells; conditions: coated at 10 μg/ml, 2 mM MgCl2
T2 construct: expressed in transfected cells; host or cells: K562
T2 sequence (P06756 31-889 limits assumed): as the sequence (P06756 31-889 limits assumed) above
T2 sequence (P06756 891-1048 partner limits assumed): as the sequence (P06756 891-1048 partner limits assumed) above
T2 sequence (P18084 24-799): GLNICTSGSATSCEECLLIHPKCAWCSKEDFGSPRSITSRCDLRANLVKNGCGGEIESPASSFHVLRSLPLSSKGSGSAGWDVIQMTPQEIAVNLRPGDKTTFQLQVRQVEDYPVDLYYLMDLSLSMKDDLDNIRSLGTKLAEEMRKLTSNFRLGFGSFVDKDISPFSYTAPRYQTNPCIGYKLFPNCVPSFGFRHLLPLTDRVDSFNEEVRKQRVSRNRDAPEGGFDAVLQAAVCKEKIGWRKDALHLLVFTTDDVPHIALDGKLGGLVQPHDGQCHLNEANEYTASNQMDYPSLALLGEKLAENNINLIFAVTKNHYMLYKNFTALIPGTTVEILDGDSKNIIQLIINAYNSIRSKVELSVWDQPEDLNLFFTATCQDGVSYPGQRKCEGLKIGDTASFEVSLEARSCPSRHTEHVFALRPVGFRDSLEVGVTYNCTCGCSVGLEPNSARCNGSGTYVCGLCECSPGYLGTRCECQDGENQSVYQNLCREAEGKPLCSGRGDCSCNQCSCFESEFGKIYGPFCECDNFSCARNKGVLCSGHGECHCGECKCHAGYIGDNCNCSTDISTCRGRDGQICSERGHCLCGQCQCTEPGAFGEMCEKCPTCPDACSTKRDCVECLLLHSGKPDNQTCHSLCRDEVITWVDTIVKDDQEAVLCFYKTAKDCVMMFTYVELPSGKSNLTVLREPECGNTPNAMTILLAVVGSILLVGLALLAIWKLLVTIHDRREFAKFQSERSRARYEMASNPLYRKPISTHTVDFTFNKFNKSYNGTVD
Description: (§1) Cells were allowed to attach to wells coated with LAP-β1 at 10 μg/ml. Cells were incubated for 35 minutes at 37° C. in HBSS supplemented with 25 mM HEPES pH 7.5, and either 0.5 mM MnCl2 (K562-WT, HL60, K562-αvβ6) or 2 mM MgCl2 (K562-αvβ3, K562-αvβ5). Each bar represents the mean±SD of duplicated points.
(§2) K562-WT (wild-type), K562-αvβ6, K562-αvβ5, K562-αvβ3, and HL60 cells were maintained in 1:1 RPMI 1640, Hepes modification (Gibco): Dulbecco's Minimum Essential Medium (DMEM), Hepes modification (Sigma) supplemented with L-glutamine (Gibco) and 10% fetal calf serum (FCS). In addition K562-αvβ3, K562-αvβ5, and K562-αvβ6 cells were supplemented with geneticin (G418, Gibco) at 1 mg/ml. All transfected cells were generated by transfecting K562 cells with pCDNA-3 constructs containing individual integrin cDNAs, using lipofectamine plus (Gibco BRL).
(§3) All proteins were coated onto Maxisorp 96-well plates (Nunclon) overnight at 4° C. Each protein was diluted in PBS at the concentrations indicated, and a total volume of 100 ul added per well. Plates were washed twice in PBS then blocked with 3% BSA/PBS for 1 hour at 37° C., and finally washed twice in PBS. […] For quantitation cells were visualised by staining with 0.1% crystal violet (Sigma) for 10 minutes then lysed in 0.5% Triton X-100 (Sigma) and read optically at 570 nm in a Wallac Victor plate reader.

K562-WT cells = experiment: Adhesion of K562-WT cells to LAP-β1 coated wells; conditions: coated at 10 μg/ml, 0.5 mM MnCl2
Description: as §1, §2, §3

αvβ3 integrin [2] = target: T1, αvβ3 integrin; experiment: Adhesion of K562-αvβ3 cells to LAP-β1 coated wells; conditions: coated at 10 μg/ml, 2 mM MgCl2
Description: Cells were allowed to attach to wells coated with quantities of LAP-β1 indicated. […] The buffer used was HBSS supplemented with 25 mM HEPES pH 7.5, and 2 mM MgCl2. Each data point represents the mean±SD of duplicated samples.
The buffer used was HBSS supplemented with 25 mM HEPES pH 7.5, and 2 mM MgCl2. Adhesion to each ligand in the absence of compound was taken as a 100% binding value, with adhesion to BSA alone as a 0% binding value. The 100% binding values corresponded to the following absorbances at 570 nm: Fibrinogen=0.8, Vitronectin=0.9, LAP-β1=0.9. Each data point represents the mean±SD of duplicated samples. […]

αvβ6 integrin = target: T3, αvβ6 integrin (Homo sapiens, UniProt P06756+P18564); experiment: Adhesion of K562-αvβ6 cells to LAP-β1 coated wells; conditions: coated at 10 μg/ml, 0.5 mM MnCl2
T3 construct: expressed in transfected cells; host or cells: K562
T3 sequence (P06756 31-889 limits assumed): as the sequence (P06756 31-889 limits assumed) above
T3 sequence (P06756 891-1048 partner limits assumed): as the sequence (P06756 891-1048 partner limits assumed) above
T3 sequence (P18564 22-788): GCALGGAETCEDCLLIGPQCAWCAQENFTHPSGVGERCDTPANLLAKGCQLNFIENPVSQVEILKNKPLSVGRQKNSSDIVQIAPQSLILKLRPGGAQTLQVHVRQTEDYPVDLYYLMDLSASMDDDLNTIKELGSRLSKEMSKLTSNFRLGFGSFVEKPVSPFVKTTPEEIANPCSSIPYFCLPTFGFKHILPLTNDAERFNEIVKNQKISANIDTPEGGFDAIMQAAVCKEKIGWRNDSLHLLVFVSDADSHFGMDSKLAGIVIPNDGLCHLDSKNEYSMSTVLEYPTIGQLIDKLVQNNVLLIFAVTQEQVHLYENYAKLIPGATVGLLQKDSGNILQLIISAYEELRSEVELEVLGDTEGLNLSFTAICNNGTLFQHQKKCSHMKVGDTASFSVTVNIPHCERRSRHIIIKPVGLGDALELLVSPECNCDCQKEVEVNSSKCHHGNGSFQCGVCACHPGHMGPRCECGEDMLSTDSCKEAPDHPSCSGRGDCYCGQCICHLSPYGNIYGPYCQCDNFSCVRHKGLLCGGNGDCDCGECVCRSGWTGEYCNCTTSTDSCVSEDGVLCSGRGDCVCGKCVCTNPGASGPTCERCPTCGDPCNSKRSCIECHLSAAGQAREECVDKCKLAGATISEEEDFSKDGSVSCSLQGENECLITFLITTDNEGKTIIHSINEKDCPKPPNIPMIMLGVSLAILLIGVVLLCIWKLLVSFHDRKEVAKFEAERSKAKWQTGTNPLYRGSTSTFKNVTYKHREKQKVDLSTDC
Description: as §1
Cells were allowed to attach to wells coated with LAP-β1 at 10 μg/ml. Cells were incubated for 5 minutes on ice, then for 35 minutes at 37° C., in the presence of antibodies at 10 μg/ml as indicated. The buffer used was HBSS supplemented with 25 mM HEPES pH 7.5, and 2 mM MgCl2. Each bar represents the mean±SD of duplicated samples.
as §2, with “All transfected cells were generated by transfecting K562 cells with pCDNA-3 constructs containing individual integrin cDNAs, using lipofectamine plus (Gibco BRL).” left out
All proteins were coated onto Maxisorp 96-well plates (Nunclon) overnight at 4° C. […] For quantitation cells were visualised by staining with 0.1% crystal violet (Sigma) for 10 minutes then lysed in 0.5% Triton X-100 (Sigma) and read optically at 570 nm in a Wallac Victor plate reader.

HL60 cells = experiment: Adhesion of HL60 cells to LAP-β1 coated wells; conditions: coated at 10 μg/ml, 0.5 mM MnCl2
Description: as §1, §2, §3

Adhesion of K562-αvβ5 cells to the coated protein (αvβ5 integrin)	Adhesion of K562-αvβ3 cells to the coated protein (αvβ3 integrin [2])	Adhesion of K562-αvβ6 cells to the coated protein (αvβ6 integrin)	Substance	Ability to support adhesion of K562-αvβ3 cells (αvβ3 integrin [1])	Adhesion of K562-WT cells to the coated protein (K562-WT cells)	Adhesion of HL60 cells to the coated protein (HL60 cells)
–	–	–	GST-LAPβ1 (aa242–252): peptide fragment of LAPβ1 (amino acids 242–252, GRRGDLATIHG) containing the RGD motif, expressed as a GST fusion protein in E. coli ({GST}-GRRGDLATIHG; UniProt P01137 242-252, looked up, fragment)	supported adhesion of K562-αvβ3 cells similarly to intact LAPβ1	–	–
bound slightly	interacted strongly	adhered	LAP-β1: latency associated peptide-β1 of TGF-β1, amino acids 30 to 278 of SEQ ID NO: 1, obtained from Sigma	–	bound slightly	failed to bind
